{"source": "patent US11407825B2", "about": "“NaPi2b-targeted polymer antibody-drug conjugates and methods of use thereof” (Mersana Therapeutics, Inc., priority 2018, dated 2022)", "tested_on": "NaPi2b expressing tumors", "test": "Phase 1b study of XMT-1536: tumor response per RECIST version 1.1", "type": "in vivo, human", "details": "for decrease in diameter of target lesions: DL4A (20 mg/m^2)", "description": "The study presented herein is an open label, multi-center Phase 1b study of XMT-1536 administered as an intravenous infusion once every three or four weeks. The dose escalation (DES) part of the study will establish the maximum tolerated dose (MTD) or recommended Phase 2 dose (RP2D) for XMT-1536 in patients with a number of tumor types likely to express NaPi2b, with a focus on patients with platinum-resistant ovarian cancer and non-squamous non-small cell lung cancer (NSCLC). […] The RP2D may differ from the MTD and may take into account tolerability, pharmacokinetic and pharmacodynamic measures, and efficacy of XMT-1536 based on RECIST 1.1. After the first cycle, patients may continue to receive XMT-1536 until disease progression provided the drug is well-tolerated and patients continue to derive clinical benefit in the opinion of the Investigator. The DES segment of the study utilized an accelerated titration design. The first 3-week cycle of treatment constitutes the dose limiting toxicity (DLT) evaluation period. For the first two dose levels, a minimum of 1 patient was treated at each dose level. If this patient experiences a treatment-emergent adverse event of Grade 2 or higher, 2 additional patients will be added at this dose level, and the study will subsequently follow a 3+3 design, as described below. […] Starting with Dose Level 3, the study will follow a standard 3+3 design, with 3 patients enrolled initially at each dose level. […] However, in the event of 1 DLT, 3 additional patients will be enrolled at the same dose level. Any dose level with 2 or more DLTs will be considered to exceed the MTD and subsequent patients will be enrolled at lower dose level(s). After the first cycle, patients may continue to receive XMT-1536 until disease progression if the drug is well-tolerated and patients continue to derive clinical benefit in the opinion of the Investigator.\nAll adverse events will be graded according to the National Cancer Institute (NCI) Common Terminology Criteria version (CTCAE v4.03). The observation period for DLTs is 56 days, between Day 1 through end of Cycle 2 which includes the pre-dose assessments before receiving the Cycle 3 dose. In general, adverse events Grade ≥3 are DLTs with modifications for the following criteria: neutropenia hematologic toxicities, gastrointestinal toxicities, hepatic toxicities, and electrolyte imbalances. XMT-1536-related toxicity that delays initiation of Cycle 3 by more than 2 weeks, hospitalization to treat an infusion-related reaction, and any toxicity that prompts modification of the dose to be administered in Cycle 3 are also DLTs. Blood sampling will be performed to determine plasma PK parameters of XMT-1536, its release product auristatin F-HPA, and select metabolites. Testing for anti-drug antibodies (ADA) and neutralizing antibodies (nAb) will be performed. Tumor responses will be Investigator-assessed using Response Evaluation Criteria in Solid Tumors (RECIST), version 1.1, at the end of Cycle 2 and every 2 cycles thereafter.\nIn both segments of the study assessments with computerized tomography (CT) scans and RECIST version 1.1 criteria are performed at the end of Cycle 2 and at the end of every even-numbered cycle thereafter. Patients are continuously evaluated for adverse events, the use of concomitant medications, and the occurrence of infusion reactions in any cycle. Pharmacokinetic profiles of XMT-1536 and select release products/metabolites and the development of anti-drug antibodies are evaluated. RECIST version 1.1, is used to measure tumor response. The objective response rate (ORR—rate of complete response [CR] and partial response [PR]) and disease control rate (DCR—rate of CR, PR, and stable disease [SD]) will be measured for each cohort. Response duration, progression-free survival (PFS) and overall survival (OS) is estimated.\nThe primary analysis of efficacy is performed using both DES and EXP data. […]", "key": {"[1]": {"details": "All NSCLC, N 3, RECIST version 1.1"}, "[2]": {"details": "All Ovarian Cancer (OC), N 19, RECIST version 1.1"}, "[3]": {"details": "NSCLC ≥ 20 mg/m^2, N 2, RECIST version 1.1"}, "[4]": {"details": "OC + NSCLC ≥ 20 mg/m^2, N 18, RECIST version 1.1"}, "[5]": {"details": "OC ≥ 20 mg/m^2, N 16, RECIST version 1.1"}, "[6]": {"details": "OC ≥ 30 mg/m^2, N 7, RECIST version 1.1"}, "[7]": {"details": "ovarian cancer and lung adenocarcinoma, ≥20 mg/m^2 (N=18)"}}}
{"molecule": "XMT-1536: about 10-15 molecules of auristatin F-hydroxypropyl amide conjugated to a cysteine moiety of NaPi2b monoclonal antibody XMT-1535 via a PHF scaffold (conjugate, chains of the INN, looked up, auristatin F-hydroxypropyl amide via PHF scaffold, about 10-15 molecules of auristatin F-hydroxypropyl amide conjugated to a cysteine moiety of NaPi2b monoclonal antibody XMT-1535 via a PHF scaffold) VH: QVQLVQSGAEVVKPGASVKMSCKASGYTFTGYNIHWVKQAPGQGLEWIGAIYPGNGDTSYKQKFRGRATLTADTSTSTVYMELSSLRSEDSAVYYCARGETARATFAYWGQGTLVTVSS VL: DIQMTQSPSSLSASVGDRVTITCSASQDIGNFLNWYQQKPGKTVKVLIYYTSSLYSGVPSRFSGSGSGTDYTLTISSLQPEDFATYYCQQYSKLPLTFGQGTKLELK", "values": [{"measurement": "DCR (PR + SD)", "setting": "All NSCLC, N 3", "result": 67, "unit": "%"}, {"measurement": "DCR (PR + SD), patients", "setting": "All NSCLC, N 3", "result": 2}, {"measurement": "PD", "setting": "[1]", "result": 33, "unit": "%"}, {"measurement": "PD, patients", "setting": "[1]", "result": 1}, {"measurement": "PR", "setting": "[1]", "result": "0 (0%)"}, {"measurement": "PR, patients", "setting": "[1]", "result": "0 (0%)"}, {"measurement": "DCR (PR + SD)", "setting": "All Ovarian Cancer (OC), N 19", "result": 58, "unit": "%"}, {"measurement": "DCR (PR + SD), patients", "setting": "All Ovarian Cancer (OC), N 19", "result": 11}, {"measurement": "PD", "setting": "[2]", "result": 42, "unit": "%"}, {"measurement": "PD, patients", "setting": "[2]", "result": 8}, {"measurement": "PR", "setting": "[2]", "result": 16, "unit": "%"}, {"measurement": "PR, patients", "setting": "[2]", "result": 3}, {"measurement": "patients who reached partial remission", "setting": "DL 4A", "result": "one"}, {"measurement": "DCR (PR + SD)", "setting": "NSCLC ≥ 20 mg/m^2, N 2", "result": 100, "unit": "%"}, {"measurement": "DCR (PR + SD), patients", "setting": "NSCLC ≥ 20 mg/m^2, N 2", "result": 2}, {"measurement": "PD", "setting": "[3]", "result": "0 (0%)"}, {"measurement": "PD, patients", "setting": "[3]", "result": "0 (0%)"}, {"measurement": "PR", "setting": "[3]", "result": "0 (0%)"}, {"measurement": "PR, patients", "setting": "[3]", "result": "0 (0%)"}, {"measurement": "DCR (PR + SD)", "setting": "OC + NSCLC ≥ 20 mg/m^2, N 18", "result": 61, "unit": "%"}, {"measurement": "DCR (PR + SD), patients", "setting": "OC + NSCLC ≥ 20 mg/m^2, N 18", "result": 11}, {"measurement": "PD", "setting": "[4]", "result": 39, "unit": "%"}, {"measurement": "PD, patients", "setting": "[4]", "result": 7}, {"measurement": "PR", "setting": "[4]", "result": 17, "unit": "%"}, {"measurement": "PR, patients", "setting": "[4]", "result": 3}, {"measurement": "DCR (PR + SD)", "setting": "OC ≥ 20 mg/m^2, N 16", "result": 57, "unit": "%"}, {"measurement": "DCR (PR + SD), patients", "setting": "OC ≥ 20 mg/m^2, N 16", "result": 9}, {"measurement": "PD", "setting": "[5]", "result": 43, "unit": "%"}, {"measurement": "PD, patients", "setting": "[5]", "result": 7}, {"measurement": "PR", "setting": "[5]", "result": 19, "unit": "%"}, {"measurement": "PR, patients", "setting": "[5]", "result": 3}, {"measurement": "DCR (PR + SD)", "setting": "OC ≥ 30 mg/m^2, N 7", "result": 71, "unit": "%"}, {"measurement": "DCR (PR + SD), patients", "setting": "OC ≥ 30 mg/m^2, N 7", "result": 5}, {"measurement": "PD", "setting": "[6]", "result": 28, "unit": "%"}, {"measurement": "PD, patients", "setting": "[6]", "result": 2}, {"measurement": "PR", "setting": "[6]", "result": 28, "unit": "%"}, {"measurement": "PR, patients", "setting": "[6]", "result": 2}, {"measurement": "dose response of best response by RECIST (waterfall plot)", "setting": "change in tumor size by dose level", "result": "there appears to be a dose response"}, {"measurement": "anti-tumor activity", "setting": "conclusions", "result": "early signs of anti-tumor activity"}, {"measurement": "objective responses", "setting": "doses of 20 mg/m^2 and higher", "result": "Objective responses have been observed"}, {"measurement": "clinical activity based on objective responses and duration of treatment", "setting": "doses of 20 mg/m^2 or higher", "result": "clinical activity was observed"}, {"measurement": "DCR", "setting": "[7]", "result": 61, "unit": "%"}, {"measurement": "ORR", "setting": "[7]", "result": 17, "unit": "%"}, {"measurement": "PRs", "setting": "[7]", "result": 17, "unit": "%"}, {"measurement": "PRs, patients", "setting": "[7]", "result": 3}, {"measurement": "SDs", "setting": "[7]", "result": 44, "unit": "%"}, {"measurement": "SDs, patients", "setting": "[7]", "result": 8}, {"measurement": "disease control rate", "setting": "patients treated with at least 12 mg/m^2, every three weeks, RECIST version 1.1", "result": 67, "unit": "%"}, {"measurement": "decrease in diameter of target lesions", "setting": "person, platinum-resistant high-grade serous ovarian cancer, end of Cycle 2", "result": 40, "unit": "%"}, {"measurement": "decrease in diameter of target lesions", "setting": "same patient, end of Cycle 3", "result": 75, "unit": "%"}, {"measurement": "patients who reached nearly partial remission", "setting": "starting at DL 5", "result": "two"}, {"measurement": "patients with stable disease (SD) as best response", "setting": "ten patients with post-treatment restaging scans, as of February 2019", "result": 9}, {"measurement": "outcome by dose level (swimmers plot)", "setting": "time on study by dose level and tumor type", "result": "At lower doses the majority of patients came off study because of progressive disease, but starting at DL4, most patients had stable disease"}]}
